Molecular target: T1, CD3ε homodimer protein (human, UniProt P07766 23-126, limits assumed)
T1 construct: also called CD3 (CD3ε)
Test: SPR Biacore T200, CD3ε homodimer on chip;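 further: Light-chain single-residue variant antibodies injected over amine-coupled CD3ε homodimer on a CM4 chip at 25 °C, bound amount divided by that of the GLS3000-containing antibody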

T1 sequence (P07766 23-126 limits assumed): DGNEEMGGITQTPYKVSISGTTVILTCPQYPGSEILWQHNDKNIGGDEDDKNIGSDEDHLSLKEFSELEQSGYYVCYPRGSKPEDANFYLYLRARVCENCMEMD

B1: GLS3000 G91T one-arm antibody (antibody, human IgG1, kappa, L234A L235A, N297A, name in Kabat numbering)
heavy: QVQLVESGGGVVQPGRSLRLSCAASGFTFSNAWMHWVRQAPGKGLEWVAQIKAKSNNYATYYAESVKGRFTISRDDSKNSLYLQMNSLKTEDTAVYYCRYVHYGAYYGVDAWGQGTTVTVSSASTKGPSVFPLAPSSKSTSGGTAALGCLVKDYFPEPVTVSWNSGALTSGVHTFPAVLQSSGLYSLSSVVTVPSSSLGTQTYICNVNHKPSNTKVDKKVEPKSCDKTHTCPPCPAPEAAGGPSVFLFPPKPKDTLMISRTPEVTCVVVDVSHEDPEVKFNWYVDGVEVHNAKTKPREEQYASTYRVVSVLTVLHQDWLNGKEYKCKVSNKALPAPIEKTISKAKGQPREPQVYTLPPSRCELTKNQVSLSCAVKGFYPSDIAVEWESNGQPENNYKTTPPVLDSDGSFFLVSKLTVDKSRWQQGNVFSCSVMHEALHNHYTQKSLSLSPDYKDDDDK
chain: EPKSSDKTHTCPPCPAPELLGGPSVFLFPPKPKDTLMISRTPEVTCVVVDVSHEDPEVKFNWYVDGVEVHNAKTKPREEQYNSTYRVVSVLTVLHQDWLNGKEYKCKVSNKALPAPIEKTISKAKGQPREPQVCTLPPSRDELTKNQVSLWCLVKGFYPSDIAVEWESNGQPENNYKTTPPVLDSDGSFFLYSKLTVDKSRWQQGNVFSCSVMHEALHNRYTQKSLSLSP
light: DIVMTQSPLSLPVTPGEPASISCRSSQSLVHSNRNTYLHWYQQKPGQAPRLLIYKVSNRFSGVPDRFSGSGSGTDFTLKISRVEAEDVGVYYCGQTTQVPYTFGQGTKLEIKRTVAAPSVFIFPPSDEQLKSGTASVVCLLNNFYPREAKVQWKVDNALQSGNSQESVTEQDSKDSTYSLSSTLTLSKADYEKHKVYACEVTHQGLSSPVTKSFNRGEC
B1 was tested, and the “ratio of amount bound vs unaltered GLS3000” value (shortened to “ratio of amount bound”) was 0.26.

B2: GLS3000 H27dE one-arm antibody (antibody, human IgG1, kappa, L234A L235A, N297A, name in Kabat numbering)
heavy: QVQLVESGGGVVQPGRSLRLSCAASGFTFSNAWMHWVRQAPGKGLEWVAQIKAKSNNYATYYAESVKGRFTISRDDSKNSLYLQMNSLKTEDTAVYYCRYVHYGAYYGVDAWGQGTTVTVSSASTKGPSVFPLAPSSKSTSGGTAALGCLVKDYFPEPVTVSWNSGALTSGVHTFPAVLQSSGLYSLSSVVTVPSSSLGTQTYICNVNHKPSNTKVDKKVEPKSCDKTHTCPPCPAPEAAGGPSVFLFPPKPKDTLMISRTPEVTCVVVDVSHEDPEVKFNWYVDGVEVHNAKTKPREEQYASTYRVVSVLTVLHQDWLNGKEYKCKVSNKALPAPIEKTISKAKGQPREPQVYTLPPSRCELTKNQVSLSCAVKGFYPSDIAVEWESNGQPENNYKTTPPVLDSDGSFFLVSKLTVDKSRWQQGNVFSCSVMHEALHNHYTQKSLSLSPDYKDDDDK
chain: EPKSSDKTHTCPPCPAPELLGGPSVFLFPPKPKDTLMISRTPEVTCVVVDVSHEDPEVKFNWYVDGVEVHNAKTKPREEQYNSTYRVVSVLTVLHQDWLNGKEYKCKVSNKALPAPIEKTISKAKGQPREPQVCTLPPSRDELTKNQVSLWCLVKGFYPSDIAVEWESNGQPENNYKTTPPVLDSDGSFFLYSKLTVDKSRWQQGNVFSCSVMHEALHNRYTQKSLSLSP
light: DIVMTQSPLSLPVTPGEPASISCRSSQSLVESNRNTYLHWYQQKPGQAPRLLIYKVSNRFSGVPDRFSGSGSGTDFTLKISRVEAEDVGVYYCGQGTQVPYTFGQGTKLEIKRTVAAPSVFIFPPSDEQLKSGTASVVCLLNNFYPREAKVQWKVDNALQSGNSQESVTEQDSKDSTYSLSSTLTLSKADYEKHKVYACEVTHQGLSSPVTKSFNRGEC
With B2 the “ratio of amount bound” value was 0.23.

B3: GLS3000 H27dG one-arm antibody (antibody, human IgG1, kappa, L234A L235A, N297A, name in Kabat numbering)
heavy: QVQLVESGGGVVQPGRSLRLSCAASGFTFSNAWMHWVRQAPGKGLEWVAQIKAKSNNYATYYAESVKGRFTISRDDSKNSLYLQMNSLKTEDTAVYYCRYVHYGAYYGVDAWGQGTTVTVSSASTKGPSVFPLAPSSKSTSGGTAALGCLVKDYFPEPVTVSWNSGALTSGVHTFPAVLQSSGLYSLSSVVTVPSSSLGTQTYICNVNHKPSNTKVDKKVEPKSCDKTHTCPPCPAPEAAGGPSVFLFPPKPKDTLMISRTPEVTCVVVDVSHEDPEVKFNWYVDGVEVHNAKTKPREEQYASTYRVVSVLTVLHQDWLNGKEYKCKVSNKALPAPIEKTISKAKGQPREPQVYTLPPSRCELTKNQVSLSCAVKGFYPSDIAVEWESNGQPENNYKTTPPVLDSDGSFFLVSKLTVDKSRWQQGNVFSCSVMHEALHNHYTQKSLSLSPDYKDDDDK
chain: EPKSSDKTHTCPPCPAPELLGGPSVFLFPPKPKDTLMISRTPEVTCVVVDVSHEDPEVKFNWYVDGVEVHNAKTKPREEQYNSTYRVVSVLTVLHQDWLNGKEYKCKVSNKALPAPIEKTISKAKGQPREPQVCTLPPSRDELTKNQVSLWCLVKGFYPSDIAVEWESNGQPENNYKTTPPVLDSDGSFFLYSKLTVDKSRWQQGNVFSCSVMHEALHNRYTQKSLSLSP
light: DIVMTQSPLSLPVTPGEPASISCRSSQSLVGSNRNTYLHWYQQKPGQAPRLLIYKVSNRFSGVPDRFSGSGSGTDFTLKISRVEAEDVGVYYCGQGTQVPYTFGQGTKLEIKRTVAAPSVFIFPPSDEQLKSGTASVVCLLNNFYPREAKVQWKVDNALQSGNSQESVTEQDSKDSTYSLSSTLTLSKADYEKHKVYACEVTHQGLSSPVTKSFNRGEC
With B3 the “ratio of amount bound” value was 0.3.

B4: GLS3000 G91Y one-arm antibody (antibody, human IgG1, kappa, L234A L235A, N297A, name in Kabat numbering)
heavy: QVQLVESGGGVVQPGRSLRLSCAASGFTFSNAWMHWVRQAPGKGLEWVAQIKAKSNNYATYYAESVKGRFTISRDDSKNSLYLQMNSLKTEDTAVYYCRYVHYGAYYGVDAWGQGTTVTVSSASTKGPSVFPLAPSSKSTSGGTAALGCLVKDYFPEPVTVSWNSGALTSGVHTFPAVLQSSGLYSLSSVVTVPSSSLGTQTYICNVNHKPSNTKVDKKVEPKSCDKTHTCPPCPAPEAAGGPSVFLFPPKPKDTLMISRTPEVTCVVVDVSHEDPEVKFNWYVDGVEVHNAKTKPREEQYASTYRVVSVLTVLHQDWLNGKEYKCKVSNKALPAPIEKTISKAKGQPREPQVYTLPPSRCELTKNQVSLSCAVKGFYPSDIAVEWESNGQPENNYKTTPPVLDSDGSFFLVSKLTVDKSRWQQGNVFSCSVMHEALHNHYTQKSLSLSPDYKDDDDK
chain: EPKSSDKTHTCPPCPAPELLGGPSVFLFPPKPKDTLMISRTPEVTCVVVDVSHEDPEVKFNWYVDGVEVHNAKTKPREEQYNSTYRVVSVLTVLHQDWLNGKEYKCKVSNKALPAPIEKTISKAKGQPREPQVCTLPPSRDELTKNQVSLWCLVKGFYPSDIAVEWESNGQPENNYKTTPPVLDSDGSFFLYSKLTVDKSRWQQGNVFSCSVMHEALHNRYTQKSLSLSP
light: DIVMTQSPLSLPVTPGEPASISCRSSQSLVHSNRNTYLHWYQQKPGQAPRLLIYKVSNRFSGVPDRFSGSGSGTDFTLKISRVEAEDVGVYYCGQYTQVPYTFGQGTKLEIKRTVAAPSVFIFPPSDEQLKSGTASVVCLLNNFYPREAKVQWKVDNALQSGNSQESVTEQDSKDSTYSLSSTLTLSKADYEKHKVYACEVTHQGLSSPVTKSFNRGEC
For B4, the “ratio of amount bound” value was 0.17.

B5: GLS3000 H27dF one-arm antibody (antibody, human IgG1, kappa, L234A L235A, N297A, name in Kabat numbering)
heavy: QVQLVESGGGVVQPGRSLRLSCAASGFTFSNAWMHWVRQAPGKGLEWVAQIKAKSNNYATYYAESVKGRFTISRDDSKNSLYLQMNSLKTEDTAVYYCRYVHYGAYYGVDAWGQGTTVTVSSASTKGPSVFPLAPSSKSTSGGTAALGCLVKDYFPEPVTVSWNSGALTSGVHTFPAVLQSSGLYSLSSVVTVPSSSLGTQTYICNVNHKPSNTKVDKKVEPKSCDKTHTCPPCPAPEAAGGPSVFLFPPKPKDTLMISRTPEVTCVVVDVSHEDPEVKFNWYVDGVEVHNAKTKPREEQYASTYRVVSVLTVLHQDWLNGKEYKCKVSNKALPAPIEKTISKAKGQPREPQVYTLPPSRCELTKNQVSLSCAVKGFYPSDIAVEWESNGQPENNYKTTPPVLDSDGSFFLVSKLTVDKSRWQQGNVFSCSVMHEALHNHYTQKSLSLSPDYKDDDDK
chain: EPKSSDKTHTCPPCPAPELLGGPSVFLFPPKPKDTLMISRTPEVTCVVVDVSHEDPEVKFNWYVDGVEVHNAKTKPREEQYNSTYRVVSVLTVLHQDWLNGKEYKCKVSNKALPAPIEKTISKAKGQPREPQVCTLPPSRDELTKNQVSLWCLVKGFYPSDIAVEWESNGQPENNYKTTPPVLDSDGSFFLYSKLTVDKSRWQQGNVFSCSVMHEALHNRYTQKSLSLSP
light: DIVMTQSPLSLPVTPGEPASISCRSSQSLVFSNRNTYLHWYQQKPGQAPRLLIYKVSNRFSGVPDRFSGSGSGTDFTLKISRVEAEDVGVYYCGQGTQVPYTFGQGTKLEIKRTVAAPSVFIFPPSDEQLKSGTASVVCLLNNFYPREAKVQWKVDNALQSGNSQESVTEQDSKDSTYSLSSTLTLSKADYEKHKVYACEVTHQGLSSPVTKSFNRGEC
With B5 the “ratio of amount bound” value was 0.63.

B6: GLS3000 H27dD one-arm antibody (antibody, human IgG1, kappa, L234A L235A, N297A, name in Kabat numbering)
heavy: QVQLVESGGGVVQPGRSLRLSCAASGFTFSNAWMHWVRQAPGKGLEWVAQIKAKSNNYATYYAESVKGRFTISRDDSKNSLYLQMNSLKTEDTAVYYCRYVHYGAYYGVDAWGQGTTVTVSSASTKGPSVFPLAPSSKSTSGGTAALGCLVKDYFPEPVTVSWNSGALTSGVHTFPAVLQSSGLYSLSSVVTVPSSSLGTQTYICNVNHKPSNTKVDKKVEPKSCDKTHTCPPCPAPEAAGGPSVFLFPPKPKDTLMISRTPEVTCVVVDVSHEDPEVKFNWYVDGVEVHNAKTKPREEQYASTYRVVSVLTVLHQDWLNGKEYKCKVSNKALPAPIEKTISKAKGQPREPQVYTLPPSRCELTKNQVSLSCAVKGFYPSDIAVEWESNGQPENNYKTTPPVLDSDGSFFLVSKLTVDKSRWQQGNVFSCSVMHEALHNHYTQKSLSLSPDYKDDDDK
chain: EPKSSDKTHTCPPCPAPELLGGPSVFLFPPKPKDTLMISRTPEVTCVVVDVSHEDPEVKFNWYVDGVEVHNAKTKPREEQYNSTYRVVSVLTVLHQDWLNGKEYKCKVSNKALPAPIEKTISKAKGQPREPQVCTLPPSRDELTKNQVSLWCLVKGFYPSDIAVEWESNGQPENNYKTTPPVLDSDGSFFLYSKLTVDKSRWQQGNVFSCSVMHEALHNRYTQKSLSLSP
light: DIVMTQSPLSLPVTPGEPASISCRSSQSLVDSNRNTYLHWYQQKPGQAPRLLIYKVSNRFSGVPDRFSGSGSGTDFTLKISRVEAEDVGVYYCGQGTQVPYTFGQGTKLEIKRTVAAPSVFIFPPSDEQLKSGTASVVCLLNNFYPREAKVQWKVDNALQSGNSQESVTEQDSKDSTYSLSSTLTLSKADYEKHKVYACEVTHQGLSSPVTKSFNRGEC
B6 was tested, and the “ratio of amount bound” value was 0.22.
